The RNAGym collection of RNA variant scans (doi:10.1093/molbev/msab373)

B1: Azoarcus group I ribozyme (parent)
chain: GUGCCUUGCGCCGGGAAACCACGCAAGGGAUGGUGUCAAAUUCGGCGAAACCUAAGCGCCCGCCCGGGCGUAUGGCAACGCCGAGCCAAGCUUCGGCGCCUGCGCCGAUGAAGGUGUAGAGACUAGACGGCACCCACCUAAGGCAAACGCUAUGGUGAAGGCAUAGUCCAGGGAGUGGCGAAAGUCACACAAACCGG

Variants of: B1
Experiment: reverse-splicing fitness (ratio to wild type); higher = more active; in vitro selection; Mg2+ level not given
Summary of the method: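 An in vitro group I ribozyme library with randomized positions was T7-transcribed and gel-purified. In triplicate, 10 pmol RNA in EPPS pH 7.5 was reacted with 50 pmoles of a 30-nt RNA substrate for 1 h at 37 °C across several added MgCl2 levels (1–48 mM), then stopped with EDTA. Products were reverse transcribed from a substrate-complementary primer, PCR-amplified and sequenced (HiSeq 4000). Fitness is a variant's read proportion after selection over that before, normalised to wild type.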
In the case of GUGCCUUGCGCCGGGAAACCACGCAAGGGAUGGUGUCAAAUUCGGCGAAACCUAAGCGCCCGCCCGGGCGUAUGGCAACGCGGAGCCAAGCUUCGGCGCCUGCGCCGAUGCAGGUGUAGGGACUAGACGGCACCCACCUAAGGCCAACGCUAUGGUGAAGGCAUAGUCCAGGGAGUGGCGAAAGUCACACAAACCGG [C82G A111C A120G A145C], the reverse-splicing fitness is reported as 0.013. Work on GUGCCUUGCGCCGGGAAACCACGCAAGGGAUGGUGUCAAAUUCGGCGAAACCUAAGCGCCCGCCCGGGCGUAUGGCAACGCGGAGCCAAGCUUCGGCGCCUGCGCCGAUGCAGGUGUAGGGACUAGACGGCACCCACCUAAGGCCAACGGUAUGGUGAAGGCAUAGUCUAGGGAGUGGCGAAAGUCACACAAACCGG [C82G A111C A120G A145C C150G C169U] yielded a reverse-splicing fitness of 0.00721. Work on GUGCCUUGCGCCGGGAAACCACGCAAGGGAUGGUGUCAAAUUCGGCGAAACCUAAGCGCCCGCCCGGGCGUAUGGCAACGCGGAGCCAAGCUUCGGCGCCUGCGCCGAUGCAGGUGUAGGGACUAGACGGCACCCACCUAAGGCCAACGGUAUGGUGAAGGCAUAGUCGAGGGAGUGGCGAAAGUCACACAAACCGG [C82G A111C A120G A145C C150G C169G] yielded a reverse-splicing fitness of 0.00722. With GUGCCUUGCGCCGGGAAACCACGCAAGGGAUGGUGUCAAAUUCGGCGAAACCUAAGCGCCCGCCCGGGCGUAUGGCAACGCGGAGCCAAGCUUCGGCGCCUGCGCCGAUGCAGGUGUAGGGACUAGACGGCACCCACCUAAGGCCAACGGUAUGGUGAAGGCAUAGUCAAGGGAGUGGCGAAAGUCACACAAACCGG [C82G A111C A120G A145C C150G C169A] the reverse-splicing fitness was 0.0084. In the case of GUGCCUUGCGCCGGGAAACCACGCAAGGGAUGGUGUCAAAUUCGGCGAAACCUAAGCGCCCGCCCGGGCGUAUGGCAACGCGGAGCCAAGCUUCGGCGCCUGCGCCGAUGCAGGUGUAGGGACUAGACGGCACCCACCUAAGGCCAACGAUAUGGUGAAGGCAUAGUCCAGGGAGAGGCGAAAGUCACACAAACCGG [C82G A111C A120G A145C C150A U176A], the reverse-splicing fitness is reported as 0.0121. Variant GUGCCUUGCGCCGGGAAACCACGCAAGGGAUGGUGUCAAAUUCGGCGAAACCUAAGCGCCCGCCCGGGCGUAUGGCAACGCGGAGCCAAGCUUCGGCGCCUGCGCCGAUGCAGGUGUAGGGACUAGACGGCACCCACCUAAGGCCAACGAUAUGGUGAAGGCAUAGUCCAGGGAGGGGCGAAAGUCACACAAACCGG [C82G A111C A120G A145C C150A U176G] has a reverse-splicing fitness of 0.00463. With GUGCCUUGCGCCGGGAAACCACGCAAGGGAUGGUGUCAAAUUCGGCGAAACCUAAGCGCCCGCCCGGGCGUAUGGCAACGCGGAGCCAAGCUUCGGCGCCUGCGCCGAUGCAGGUGUAGGGACUAGACGGCACCCACCUAAGGCCAACGAUAUGGUGAAGGCAUAGUCCAGGGAGCGGCGAAAGUCACACAAACCGG [C82G A111C A120G A145C C150A U176C] the reverse-splicing fitness was 0.011. GUGCCUUGCGCCGGGAAACCACGCAAGGGAUGGUGUCAAAUUCGGCGAAACCUAAGCGCCCGCCCGGGCGUAUGGCAACGCGGAGCCAAGCUUCGGCGCCUGCGCCGAUGCAGGUGUAGGGACUAGACGGCACCCACCUAAGGCCAACGAUAUGGUGAAGGCAUAGUCGAGGGAGAGGCGAAAGUCACACAAACCGG [C82G A111C A120G A145C C150A C169G U176A] gave a reverse-splicing fitness of 0.0248. In the case of GUGCCUUGCGCCGGGAAACCACGCAAGGGAUGGUGUCAAAUUCGGCGAAACCUAAGCGCCCGCCCGGGCGUAUGGCAACGCGGAGCCAAGCUUCGGCGCCUGCGCCGAUGCAGGUGUAGGGACUAGACGGCACCCACCUAAGGCCAACGAUAUGGUGAAGGCAUAGUCGAGGGAGCGGCGAAAGUCACACAAACCGG [C82G A111C A120G A145C C150A C169G U176C], the reverse-splicing fitness is reported as 0.0158. For GUGCCUUGCGCCGGGAAACCACGCAAGGGAUGGUGUCAAAUUCGGCGAAACCUAAGCGCCCGCCCGGGCGUAUGGCAACGCGGAGCCAAGCUUCGGCGCCUGCGCCGAUGCAGGUGUAGGGACUAGACGGCACCCACCUAAGGCCAACGAUAUGGUGAAGGCAUAGUCGAGGGAGGGGCGAAAGUCACACAAACCGG [C82G A111C A120G A145C C150A C169G U176G], the reverse-splicing fitness was 0.00529. In the case of GUGCCUUGCGCCGGGAAACCACGCAAGGGAUGGUGUCAAAUUCGGCGAAACCUAAGCGCCCGCCCGGGCGUAUGGCAACGCGGAGCCAAGCUUCGGCGCCUGCGCCGAUGCAGGUGUAGGGACUAGACGGCACCCACCUAAGGCCAACGGUAUGGUGAAGGCAUAGUCUAGGGAGAGGCGAAAGUCACACAAACCGG [C82G A111C A120G A145C C150G C169U U176A], the reverse-splicing fitness is reported as 0.00907. In the case of GUGCCUUGCGCCGGGAAACCACGCAAGGGAUGGUGUCAAAUUCGGCGAAACCUAAGCGCCCGCCCGGGCGUAUGGCAACGCGGAGCCAAGCUUCGGCGCCUGCGCCGAUGCAGGUGUAGGGACUAGACGGCACCCACCUAAGGCCAACGGUAUGGUGAAGGCAUAGUCUAGGGAGCGGCGAAAGUCACACAAACCGG [C82G A111C A120G A145C C150G C169U U176C], the reverse-splicing fitness is reported as 0.0124. Variant GUGCCUUGCGCCGGGAAACCACGCAAGGGAUGGUGUCAAAUUCGGCGAAACCUAAGCGCCCGCCCGGGCGUAUGGCAACGCGGAGCCAAGCUUCGGCGCCUGCGCCGAUGCAGGUGUAGGGACUAGACGGCACCCACCUAAGGCCAACGGUAUGGUGAAGGCAUAGUCUAGGGAGGGGCGAAAGUCACACAAACCGG [C82G A111C A120G A145C C150G C169U U176G] has a reverse-splicing fitness of 0.00513. GUGCCUUGCGCCGGGAAACCACGCAAGGGAUGGUGUCAAAUUCGGCGAAACCUAAGCGCCCGCCCGGGCGUAUGGCAACGCGGAGCCAAGCUUCGGCGCCUGCGCCGAUGCAGGUGUAGGGACUAGACGGCACCCACCUAAGGCCAACGAUAUGGUGAAGGCAUAGUCUAGGGAGAGGCGAAAGUCACACAAACCGG [C82G A111C A120G A145C C150A C169U U176A] gave a reverse-splicing fitness of 0.0151. With GUGCCUUGCGCCGGGAAACCACGCAAGGGAUGGUGUCAAAUUCGGCGAAACCUAAGCGCCCGCCCGGGCGUAUGGCAACGCGGAGCCAAGCUUCGGCGCCUGCGCCGAUGCAGGUGUAGGGACUAGACGGCACCCACCUAAGGCCAACGAUAUGGUGAAGGCAUAGUCUAGGGAGGGGCGAAAGUCACACAAACCGG [C82G A111C A120G A145C C150A C169U U176G] the reverse-splicing fitness was 0.0047.
